Values of other authors in US20200069786A1, “COMPOSITION AND PROCESS FOR PREPARING VACCINE” (TREOS BIO ZRT., priority 2018, published 2020).
Where two headings read alike, the source gives them in different places.

B1: NLRP4 (protein, UniProt Q96MN2 1-994, looked up)
NACHT, LRR and PYD …: MAASFFSDFGLMWYLEELKKEEFRKFKEHLKQMTLQLELKQIPWTEVKKASREELANLLIKHYEEQQAWNITLRIFQKMDRKDLCMKVMRERTGYTKTYQAHAKQKFSRLWSSKSVTEIHLYFEEEVKQEECDHLDRLFAPKEAGKQPRTVIIQGPQGIGKTTLLMKLMMAWSDNKIFRDRFLYTFYFCCRELRELPPTSLADLISREWPDPAAPITEIVSQPERLLFVIDSFEELQGGLNEPDSDLCGDLMEKRPVQVLLSSLLRKKMLPEASLLIAIKPVCPKELRDQVTISEIYQPRGFNESDRLVYFCCFFKDPKRAMEAFNLVRESEQLFSICQIPLLCWILCTSLKQEMQKGKDLALTCQSTTSVYSSFVFNLFTPEGAEGPTPQTQHQLKALCSLAAEGMWTDTFEFCEDDLRRNGVVDADIPALLGTKILLKYGERESSYVFLHVCIQEFCAALFYLLKSHLDHPHPAVRCVQELLVANFEKARRAHWIFLGCFLTGLLNKKEQEKLDAFFGFQLSQEIKQQIHQCLKSLGERGNPQGQVDSLAIFYCLFEMQDPAFVKQAVNLLQEANFHIIDNVDLVVSAYCLKYCSSLRKLCFSVQNVFKKEDEHSSTSDYSLICWHHICSVLTTSGHLRELQVQDSTLSESTFVTWCNQLRHPSCRLQKLGINNVSFSGQSVLLFEVLFYQPDLKYLSFTLTKLSRDDIRSLCDALNYPAGNVKELALVNCHLSPIDCEVLAGLLTNNKKLTYLNVSCNQLDTGVPLLCEALCSPDTVLVYLMLAFCHLSEQCCEYISEMLLRNKSVRYLDLSANVLKDEGLKTLCEALKHPDCCLDSLCLVKCFITAAGCEDLASALISNQNLKILQIGCNEIGDVGVQLLCRALTHTDCRLEILGLEECGLTSTCCKDLASVLTCSKTLQQLNLTLNTLDHTGVVVLCEALRHPECALQVLGLRKTDFDEETQALLTAEEERNPNLTITDDCDTITRVEI
B2: GAGE-7 (protein, UniProt O76087 1-117, looked up)
G antigen 7: MSWRGRSTYYWPRPRRYVQPPEMIGPMRPEQFSDEVEPATPEEGEPATQRQDPAAAQEGEDEGASAGQGPKPEAHSQEQGHPQTGCECEDGPDGQEMDPPNPEEVKTPEEGEKQSQC
B3: CABYR (protein, UniProt O75952 1-493, looked up)
Calcium-binding tyrosine …: MISSKPRLVVPYGLKTLLEGISRAVLKTNPSNINQFAAAYFQELTMYRGNTTMDIKDLVKQFHQIKVEKWSEGTTPQKKLECLKEPGKTSVESKVPTQMEKSTDTDEDNVTRTEYSDKTTQFPSVYAVPGTEQTEAVGGLSSKPATPKTTTPPSSPPPTAVSPEFAYVPADPAQLAAQMLGKVSSIHSDQSDVLMVDVATSMPVVIKEVPSSEAAEDVMVAAPLVCSGKVLEVQVVNQTSVHVDLGSQPKENEAEPSTASSVPLQDEQEPPAYDQAPEVTLQADIEVMSTVHISSVYNDVPVTEGVVYIEQLPEQIVIPFTDQVACLKENEQSKENEQSPRVSPKSVVEKTTSGMSKKSVESVKLAQLEENAKYSSVYMEAEATALLSDTSLKGQPEVPAQLLDAEGAIKIGSEKSLHLEVEITSIVSDNTGQEESGENSVPQEMEGKPVLSGEAAEAVHSGTSVKSSSGPFPPAPEGLTAPEIEPEGESTAE
B4: PIWIL3 (protein, UniProt Q7Z3Z3 1-882, looked up)
Piwi-like protein 3: MPGRARTRARGRARRRESYQQEAPGGPRAPGSATTQEPPQLQSTPRPLQEEVPVVRPLQPRAARGGAGGGAQSQGVKEPGPEAGLHTAPLQERRIGGVFQDLVVNTRQDMKHVKDSKTGSEGTVVQLLANHFRVISRPQWVAYKYNVDYKPDIEDGNLRTILLDQHRRKFGERHIFDGNSLLLSRPLKERRVEWLSTTKDKNIVKITVEFSKELTPTSPDCLRYYNILFRRTFKLLDFEQVGRNYYTKKKAIQLYRHGTSLEIWLGYVTSVLQYENSITLCADVSHKLLRIETAYDFIKRTSAQAQTGNIREEVTNKLIGSIVLTKYNNKTYRVDDIDWKQNPEDTFNKSDGSKITYIDYYRQQHKEIVTVKKQPLLVSQGRWKKGLTGTQREPILLIPQLCHMTGLTDEICKDYSIVKELAKHTRLSPRRRHHTLKEFINTLQDNKKVRELLQLWDLKFDTNFLSVPGRVLKNANIVQGRRMVKANSQGDWSREIRELPLLNAMPLHSWLILYSRSSHREAMSLKGHLQSVTAPMGITMKPAEMIEVDGDANSYIDTLRKYTRPTLQMGMSCLLVFKVICILPNDDKRRYDSIKRYLCTKCPIPSQCVVKKTLEKVQARTIVTKIAQQMNCKMGGALWKVETDVQRTMFVGIDCFHDIVNRQKSIAGFVASTNAELTKWYSQCVIQKTGEELVKELEICLKAALDVWCKNESSMPHSVIVYRDGVGDGQLQALLDHEAKKMSTYLKTISPNNFTLAFIVVKKRINTRFFLKHGSNFQNPPPGTVIDVELTRNEWYDFFIVSQSVQDGTVTPTHYNVIYDTIGLSPDTVQRLTYCLCHMYYNLPGIIRVPAPCHYAHKLAYLVGQSIHQEPNRSLSTRLFYL
B5: LEMD1 (protein, UniProt Q68G75 1-181, looked up)
LEM domain-containing protein …: MVDVKCLSDCKLQNQLEKLGFSPGPILPSTRKLYEKKLVQLLVSPPCAPPVMNGPRELDGAQDSDDSEELNIILQGNIILSTEKSKKLKKWPEASTTKRKAVDTYCLDYKPSKGRRWAARAPSTRITYGTITKERDYCAEDQTIESWREEGFPVGLKLAVLGIFIIVVFVYLTVENKSLFG
B6: PTTG-1 (protein, UniProt O95997 2-202, looked up)
Securin: ATLIYVDKENGEPGTRVVAKDGLKLGSGPSIKALDGRSQVSTPRFGKTFDAPPALPKATRKALGTVNRATEKSVKTKGPLKQKQPSFSAKKMTEKTVKAKSSVPASDDAYPEIEKFFPFNPLDFESFDLPEEHQIAHLPLSGVPLMILDEERELEKLFQLGPPSPVKMPSPPWESNLLQSPSSILSTLDVELPPVCCDIDI
B7: CALR3 (protein, UniProt Q96L12 20-384, looked up)
Calreticulin-3: TVYFQEEFLDGEHWRNRWLQSTNDSRFGHFRLSSGKFYGHKEKDKGLQTTQNGRFYAISARFKPFSNKGKTLVIQYTVKHEQKMDCGGGYIKVFPADIDQKNLNGKSQYYIMFGPDICGFDIKKVHVILHFKNKYHENKKLIRCKVDGFTHLYTLILRPDLSYDVKIDGQSIESGSIEYDWNLTSLKKETSPAESKDWEQTKDNKAQDWEKHFLDASTSKQSDWNGDLDGDWPAPMLQKPPYQDGLKPEGIHKDVWLHRKMKNTDYLTQYDLSEFENIGAIGLELWQVRSGTIFDNFLITDDEEYADNFGKATWGETKGPEREMDAIQAKEEMKKAREEEEEELLSGKINRHEHYFNQFHRRNEL
B8: SPAG8 (protein, UniProt Q99932 1-485, looked up)
Sperm-associated antigen 8: METNESTEGSRSRSRSLDIQPSSEGLGPTSEPFPSSDDSPRSALAAATAAAAAAASAAAATAAFTTAKAAALSTKTPAPCSEFMEPSSDPSLLGEPCAGPGFTHNIAHGSLGFEPVYVSCIAQDTCTTTDHSSNPGPVPGSSSGPVLGSSSGAGHGSGSGSGPGCGSVPGSGSGPGPGSGPGSGPGHGSGSHPGPASGPGPDTGPDSELSPCIPPGFRNLVADRVPNYTSWSQHCPWEPQKQPPWEFLQVLEPGARGLWKPPDIKGKLMVCYETLPRGQCLLYNWEEERATNHLDQVPSMQDGSESFFFRHGHRGLLTMQLKSPMPSSTTQKDSYQPPGNVYWPLRGKREAMLEMLLQHQICKEVQAEQEPTRKLFEVESVTHHDYRMELAQAGTPAPTKPHDYRQEQPETFWIQRAPQLPGVSNIRTLDTPFRKNCSFSTPVPLSLGKLLPYEPENYPYQLGEISSLPCPGGRLGGGGGRMTPF
B9: HSPB9 (protein, UniProt Q9BQS6 1-159, looked up)
Heat shock protein beta-9: MQRVGNTFSNESRVASRCPSVGLAERNRVATMPVRLLRDSPAAQEDNDHARDGFQMKLDAHGFAPEELVVQVDGQWLMVTGQQQLDVRDPERVSYRMSQKVHRKMLPSNLSPTAMTCCLTPSGQLWVRGQCVALALPEAQTGPSPRLGSLGSKASNLTR
B10: SPAG6 (protein, UniProt O75602 1-509, looked up)
Sperm-associated antigen 6: MSQRQVLQVFEQYQKARTQFVQMVAELATRPQNIETLQNAGVMSLLRTLLLDVVPTIQQTAALALGRLANYNDDLAEAVVKCDILPQLVYSLAEQNRFYKKAAAFVLRAVGKHSPQLAQAIVDCGALDTLVICLEDFDPGVKEAAAWALRYIARHNAELSQAVVDAGAVPLLVLCIQEPEIALKRIAASALSDIAKHSPELAQTVVDAGAVAHLAQMILNPDAKLKHQILSALSQVSKHSVDLAEMVVEAEIFPVVLTCLKDKDEYVKKNASTLIREIAKHTPELSQLVVNAGGVAAVIDCIGSCKGNTRLPGIMMLGYVAAHSENLAMAVIISKGVPQLSVCLSEEPEDHIKAAAAWALGQIGRHTPEHARAVAVTNTLPVLLSLYMSTESSEDLQVKSKKAIKNILQKCTYLPALEPFLYDAPPNILKHVVGQFSKVLPHDSKARRLFVTSGGLKKVQEIKAEPGSLLQEYINSINSCYPEEIVRYYSPGYSDTLLQRVDSYQPLNN
B11: THEG (protein, UniProt Q9P2T0 1-379, looked up)
Sperm microtubule associated …: MGDSRRRSLGNQPSSEAAGRSEREQDGDPRGLQSSVYESRRVTDPERQDLDNAELGPEDPEEELPPEEVAGEEFPETLDPKEALSELERVLDKDLEEDIPEISRLSISQKLPSTTMTKARKRRRRRRLMELAEPKINWQVLKDRKGRCGKGYAWISPCKMSLHFCLCWPSVYWTERFLEDTTLTITVPAVSRRVEELSRPKRFYLEYYNNNRTTPVWPIPRSSLEYRASSRLKELAAPKIRDNFWSMPMSEVSQVSRAAQMAVPSSRILQLSKPKAPATLLEEWDPVPKPKPHVSDHNRLLHLARPKAQSDKCVPDRDPRWEVLDVTKKVVASPRIISLAKPKVRKGLNEGYDRRPLASMSLPPPKASPEKCDQPRPGL
B12: COX6B2 (protein, UniProt Q6YFQ2 1-88, looked up)
Cytochrome c oxidase subunit …: MLDVEAQEPPKGKWSTPPFDPRFPSQNQIRNCYQNFLDYHRCLKTRTRRGKSTQPCEYYFRVYHSLCPISWVESWNEQIKNGIFAGKI

Test system: TSA
[1] = TSA expression rate in Esophageal
[2] = TSA expression rate in LUNG cancer

Molecule | TSA Expression Rate (ER) (LUNG) [%] | TSA Expression Rate (ER) (BREAST) [%] | Expression Rate (ER) % (TSA expression rate in CRC) [%] | other results
B1 | 38 | – | – | –
B2 | – | 31 | – | Expression Rate (ER) % (TSA expression rate in HEAD and NECK): 9%
B3 | – | – | – | Expression Rate (ER) % [1]: 17%; Expression Rate (ER) % [2]: 16%
B4 | – | – | 96 | TSA Expression Rate (ER) (OVARIAN): 88%; Expression Rate (ER) % [2]: 7%
B5 | – | 35 | 94 | Expression Rate (ER) % (TSA expression rate in PROSTATE cancer): 23%
B6 | 20 | – | – | –
B7 | – | 0 | 16 | Expression Rate (ER) % (TSA expression rate in GASTRIC cancer): 40%; Expression Rate (ER) % (TSA expression rate in Kidney): 80%; Expression Rate (ER) % [2]: 9%; Expression Rate (ER) % (TSA expression rate in MELANOMA): 44%
B8 | 43 | 29 | – | –
B9 | 40 | – | 40 | Expression Rate (ER) % [1]: 20%
B10 | 29 | 21 | – | –
B11 | 31 | – | – | –
B12 | 24 | – | – | –
